Test results taken from US20240358855A1 (UNIVERSITY OF UTAH RESEARCH FOUNDATION, published 2024).

T1: CRP (UniProt P02741 19-224)
T1 construct: Bought protein coated on plates; also called C reactive protein
T1 sequence (looked up): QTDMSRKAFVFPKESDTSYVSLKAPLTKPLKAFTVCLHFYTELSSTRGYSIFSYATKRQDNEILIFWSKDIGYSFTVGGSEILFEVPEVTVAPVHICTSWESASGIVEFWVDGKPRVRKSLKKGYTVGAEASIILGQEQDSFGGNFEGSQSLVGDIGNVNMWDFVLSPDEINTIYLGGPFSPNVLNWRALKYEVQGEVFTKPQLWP


Key:
C3b protein [1] = biological target: T2, C3b protein (UniProt P01024 23-667; P01024 749-1663, limits assumed); assay: plate binding ELISA on coated C3b; fold vs (-) control pCTM395 supernatant
T2 construct: domain: C3b; Bought protein coated on plates
T2 sequence (P01024 23-667 limits assumed, chain 1 of 2): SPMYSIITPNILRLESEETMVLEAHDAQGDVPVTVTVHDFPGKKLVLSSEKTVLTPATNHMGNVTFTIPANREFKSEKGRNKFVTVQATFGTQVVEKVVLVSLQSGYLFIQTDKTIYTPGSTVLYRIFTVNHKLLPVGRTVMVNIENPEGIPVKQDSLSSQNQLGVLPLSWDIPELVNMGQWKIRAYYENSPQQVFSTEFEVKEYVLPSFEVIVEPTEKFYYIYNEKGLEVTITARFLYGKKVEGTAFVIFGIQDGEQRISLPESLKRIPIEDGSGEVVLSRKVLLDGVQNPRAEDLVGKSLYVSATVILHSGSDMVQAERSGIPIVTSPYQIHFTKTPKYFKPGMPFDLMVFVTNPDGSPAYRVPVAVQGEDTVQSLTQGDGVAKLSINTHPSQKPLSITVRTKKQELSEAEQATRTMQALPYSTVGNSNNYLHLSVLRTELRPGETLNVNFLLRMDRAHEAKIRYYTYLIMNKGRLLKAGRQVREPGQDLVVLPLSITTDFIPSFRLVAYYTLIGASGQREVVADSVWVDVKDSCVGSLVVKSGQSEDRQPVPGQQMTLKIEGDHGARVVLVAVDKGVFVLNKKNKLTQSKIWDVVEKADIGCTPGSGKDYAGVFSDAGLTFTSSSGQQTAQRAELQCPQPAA
T2 sequence (P01024 749-1663 limits assumed, chain 2 of 2): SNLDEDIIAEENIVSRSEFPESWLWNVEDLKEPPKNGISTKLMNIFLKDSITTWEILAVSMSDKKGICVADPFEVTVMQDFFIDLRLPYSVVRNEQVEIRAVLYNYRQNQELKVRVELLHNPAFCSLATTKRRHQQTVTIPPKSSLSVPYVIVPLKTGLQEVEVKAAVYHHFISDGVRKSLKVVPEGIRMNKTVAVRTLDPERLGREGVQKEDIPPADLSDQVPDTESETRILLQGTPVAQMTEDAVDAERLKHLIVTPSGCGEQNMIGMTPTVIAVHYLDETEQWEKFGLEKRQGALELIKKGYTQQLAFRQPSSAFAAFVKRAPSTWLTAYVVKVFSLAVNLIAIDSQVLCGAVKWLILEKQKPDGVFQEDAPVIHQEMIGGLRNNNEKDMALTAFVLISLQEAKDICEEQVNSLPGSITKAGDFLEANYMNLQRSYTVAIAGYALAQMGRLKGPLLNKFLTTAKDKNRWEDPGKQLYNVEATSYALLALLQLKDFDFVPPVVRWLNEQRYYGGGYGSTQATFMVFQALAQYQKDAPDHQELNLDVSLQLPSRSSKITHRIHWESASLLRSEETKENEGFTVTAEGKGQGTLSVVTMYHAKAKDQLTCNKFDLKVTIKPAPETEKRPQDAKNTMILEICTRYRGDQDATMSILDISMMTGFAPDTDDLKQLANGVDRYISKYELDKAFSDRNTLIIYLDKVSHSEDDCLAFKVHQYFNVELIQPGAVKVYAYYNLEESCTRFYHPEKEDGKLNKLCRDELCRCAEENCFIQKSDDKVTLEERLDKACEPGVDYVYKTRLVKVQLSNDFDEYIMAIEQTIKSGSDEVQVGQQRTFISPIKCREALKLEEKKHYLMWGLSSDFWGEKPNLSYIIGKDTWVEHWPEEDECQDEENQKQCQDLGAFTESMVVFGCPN

CRP [2] = biological target: T1, CRP; assay: plate binding ELISA on coated CRP; fold vs (-) control pCTM395 supernatant
C3b protein [3] = biological target: T2, C3b protein; assay: plate binding ELISA on coated C3b, HEK293 supernatant 25 ng/mL; fold vs (-) control pCTM395 supernatant
Procedure: The C3b binding assay uses C3b protein (Complement Technology, Cat. #A114) diluted with 50 mM carbonate coating buffer (pH 9.6) at a final concentration of 50 μM. A total of 100 μl of C3b/carbonate solution was added to each well of a black MaxiSorp 96-wellmicroplate, covered and incubated overnight at 4° C. Blank control wells were incubated with carbonate coating buffer containing no C3b protein. Wells were washed 3 times with 300 μl PBST then blocked for 1 hour with reagent dilution buffer (1% BSA in PBS). Wells were washed again 3 times with 300 μl PBST. […] The plate was washed as above then incubated for 1 hour with anti-CFH/CFHT biotinylated aCTM87b antibody (OX-24, AbCam, Cat. #ab112197) at 1:1000 dilution. The plates were washed as above, then incubated for 1 hour with high sensitivity Streptavidin-HRP (Pierce Cat. #21130) at 1:10,000, washed as above then incubated for 5 minutes with SuperSignal ELISA Pico Chemiluminescent Substrate (Thermo Scientific, Cat. #37069) before detection using the BioTek Synergy4 plate reader.
For C3b assays, 25 ng/mL of CFHT protein-containing supernatant was added to plates coated with C3b.

C3d ligand = biological target: T3, C3d ligand (UniProt P01024 1002-1303, limits assumed); assay: plate binding assay on C3d, purified protein; fold vs CFHT-I62
T3 construct: domain: C3d
T3 sequence (P01024 1002-1303 limits assumed): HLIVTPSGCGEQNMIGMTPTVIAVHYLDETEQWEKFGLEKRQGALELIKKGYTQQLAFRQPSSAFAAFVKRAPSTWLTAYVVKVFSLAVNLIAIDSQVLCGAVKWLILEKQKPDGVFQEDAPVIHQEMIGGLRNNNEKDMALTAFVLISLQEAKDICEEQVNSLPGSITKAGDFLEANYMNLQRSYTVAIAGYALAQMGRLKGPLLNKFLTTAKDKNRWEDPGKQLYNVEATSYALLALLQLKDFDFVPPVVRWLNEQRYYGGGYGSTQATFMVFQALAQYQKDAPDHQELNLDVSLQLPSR

CRP [4] = biological target: T1, CRP; assay: plate binding ELISA on coated CRP, HEK293 supernatant; fold vs (-) control pCTM395 supernatant
C3b protein [5] = biological target: T2, C3b protein; assay: plate binding ELISA on coated C3b, purified protein; fold vs CFHT-I62
Procedure: The C3b binding assay uses C3b protein (Complement Technology, Cat. #A114) diluted with 50 mM carbonate coating buffer (pH 9.6) at a final concentration of 50 μM. A total of 100 μl of C3b/carbonate solution was added to each well of a black MaxiSorp 96-wellmicroplate, covered and incubated overnight at 4° C. Blank control wells were incubated with carbonate coating buffer containing no C3b protein. Wells were washed 3 times with 300 μl PBST then blocked for 1 hour with reagent dilution buffer (1% BSA in PBS). Wells were washed again 3 times with 300 μl PBST. Dilutions of recombinant protective CFH, CFHT, oCFHT or supernatant from transiently transfected or transduced Cos-7 cells were prepared in reagent dilution buffer, added to wells in triplicate and incubated for 1 hour at room temperature. The plate was washed as above then incubated for 1 hour with anti-CFH/CFHT biotinylated aCTM87b antibody (OX-24, AbCam, Cat. #ab112197) at 1:1000 dilution. The plates were washed as above, then incubated for 1 hour with high sensitivity Streptavidin-HRP (Pierce Cat. #21130) at 1:10,000, washed as above then incubated for 5 minutes with SuperSignal ELISA Pico Chemiluminescent Substrate (Thermo Scientific, Cat. #37069) before detection using the BioTek Synergy4 plate reader. […]

CRP [6] = biological target: T1, CRP; assay: plate binding ELISA on coated CRP, purified protein; fold vs CFHT-I62
C3 convertase, C3bBb = C3 convertase, C3bBb (UniProt P01024 23-1663; P00751 260-764, limits assumed); assay: cell-based or functional assay
C3 convertase, C3bBb, sequence (P01024 23-1663 limits assumed, chain 1 of 2): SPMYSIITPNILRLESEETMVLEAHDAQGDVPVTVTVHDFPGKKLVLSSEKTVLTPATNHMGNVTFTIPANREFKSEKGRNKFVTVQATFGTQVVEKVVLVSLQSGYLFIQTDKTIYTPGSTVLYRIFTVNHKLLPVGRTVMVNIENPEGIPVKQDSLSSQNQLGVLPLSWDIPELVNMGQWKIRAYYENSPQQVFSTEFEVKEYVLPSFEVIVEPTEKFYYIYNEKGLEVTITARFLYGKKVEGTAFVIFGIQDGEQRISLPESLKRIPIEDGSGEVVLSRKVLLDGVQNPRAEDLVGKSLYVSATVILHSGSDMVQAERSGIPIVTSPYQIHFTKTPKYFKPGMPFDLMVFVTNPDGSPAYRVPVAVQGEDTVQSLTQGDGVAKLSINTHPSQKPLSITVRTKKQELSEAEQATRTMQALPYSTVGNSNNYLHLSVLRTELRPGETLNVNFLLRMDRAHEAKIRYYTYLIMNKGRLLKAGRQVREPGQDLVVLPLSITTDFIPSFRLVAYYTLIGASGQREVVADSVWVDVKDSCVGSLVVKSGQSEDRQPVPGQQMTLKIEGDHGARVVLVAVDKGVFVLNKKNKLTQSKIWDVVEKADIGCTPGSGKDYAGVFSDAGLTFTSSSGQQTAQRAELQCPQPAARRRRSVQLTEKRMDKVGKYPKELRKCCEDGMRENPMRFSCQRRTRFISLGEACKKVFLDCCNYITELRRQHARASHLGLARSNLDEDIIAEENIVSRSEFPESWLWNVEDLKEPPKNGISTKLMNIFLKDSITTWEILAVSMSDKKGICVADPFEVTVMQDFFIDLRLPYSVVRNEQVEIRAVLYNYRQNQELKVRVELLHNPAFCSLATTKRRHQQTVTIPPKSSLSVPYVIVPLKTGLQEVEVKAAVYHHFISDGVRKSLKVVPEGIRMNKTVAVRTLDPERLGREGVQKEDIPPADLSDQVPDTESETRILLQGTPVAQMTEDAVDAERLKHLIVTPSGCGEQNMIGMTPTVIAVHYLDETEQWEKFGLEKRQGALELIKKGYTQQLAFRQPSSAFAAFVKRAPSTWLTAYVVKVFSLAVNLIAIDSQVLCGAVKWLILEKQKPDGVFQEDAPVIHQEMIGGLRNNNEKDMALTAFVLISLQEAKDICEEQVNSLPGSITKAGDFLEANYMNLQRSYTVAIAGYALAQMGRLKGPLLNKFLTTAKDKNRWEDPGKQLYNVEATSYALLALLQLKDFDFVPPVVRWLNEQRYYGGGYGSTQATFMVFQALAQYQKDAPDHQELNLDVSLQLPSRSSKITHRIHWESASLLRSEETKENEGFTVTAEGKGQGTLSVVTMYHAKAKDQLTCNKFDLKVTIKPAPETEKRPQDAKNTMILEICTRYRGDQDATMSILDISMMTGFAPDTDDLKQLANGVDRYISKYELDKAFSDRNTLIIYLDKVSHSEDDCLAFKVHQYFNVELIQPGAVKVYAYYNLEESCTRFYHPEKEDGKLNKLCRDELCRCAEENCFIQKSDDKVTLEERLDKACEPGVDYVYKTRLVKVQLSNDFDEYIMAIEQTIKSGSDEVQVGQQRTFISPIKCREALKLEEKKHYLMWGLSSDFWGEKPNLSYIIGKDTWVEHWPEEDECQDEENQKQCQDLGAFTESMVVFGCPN
C3 convertase, C3bBb, sequence (P00751 260-764 limits assumed, chain 2 of 2): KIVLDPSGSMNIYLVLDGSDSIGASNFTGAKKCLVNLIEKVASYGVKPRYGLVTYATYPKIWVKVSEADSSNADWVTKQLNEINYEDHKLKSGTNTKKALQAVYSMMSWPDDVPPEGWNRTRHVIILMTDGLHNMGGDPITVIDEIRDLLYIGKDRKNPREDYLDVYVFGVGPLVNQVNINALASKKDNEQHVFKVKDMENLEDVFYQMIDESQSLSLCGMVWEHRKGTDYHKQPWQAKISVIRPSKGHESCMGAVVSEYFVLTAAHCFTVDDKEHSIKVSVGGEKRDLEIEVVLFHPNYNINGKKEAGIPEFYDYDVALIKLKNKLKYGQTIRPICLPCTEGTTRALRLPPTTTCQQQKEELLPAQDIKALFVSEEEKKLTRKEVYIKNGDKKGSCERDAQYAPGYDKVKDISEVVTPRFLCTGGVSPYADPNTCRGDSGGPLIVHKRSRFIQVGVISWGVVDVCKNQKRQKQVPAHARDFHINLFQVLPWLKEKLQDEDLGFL

Row | Binder | Fold Activity at Highest Dose (Relative to Control) (C3b protein [1]) [fold] | Fold Activity at Highest Dose (Relative to Control) (CRP [2]) [fold] | Fold Activity at Highest Dose (Relative to Control) (C3b protein [3]) [fold] | Fold Activity (Compared to CFHT-I62) (C3d ligand) [fold] | Fold Activity at Highest Dose (Relative to Control) (CRP [4]) [fold] | Fold Activity (Compared to CFHT-I62) (C3b protein [5]) [fold] | Fold Activity (Compared to CFHT-I62) (CRP [6]) [fold] | IC50, decay acceleration activity (DAA) assay (C3 convertase, C3bBb) [nM] | fold less active than unmodified CFHT, DAA assay (C3 convertase, C3bBb) [fold]
1 | rCFHT-I62 Protein (other, Purified recombinant protective CFHT (I62, Y402); also called purified recombinant CFHT-I62 protein; recombinant CFHT-I62) EDCNELPPRRNTEILTGSWSDQTYPEGTQAIYKCRPGYRSLGNIIMVCRKGEWVALNPLRKCQKRPCGHPGDTPFGTFTLTGGNVFEYGVKAVYTCNEGYQLLGEINYRECDTDGWTNDIPICEVVKCLPVTAPENGKIVSSAMEPDREYHFGQAVRFVCNSGYKIEGDEEMHCSDDGFWSKEKPKCVEISCKSPDVINGSPISQKIIYKENERFQYKCNMGYEYSERGDAVCTESGWRPLPSCEEKSCDNPYIPNGDYSPLRIKHRTGDEITYQCRNGFYPATRGNTAKCTSTGWIPAPRCTLKPCDYPDIKHGGLYHENMRRPYFPVAVGKYYSYYCDEHFETPSGSYWDHIHCTQDGWSPAVPCLRKCYFPYLENGYNQNYGRKFVQGKSIDVACHPGYALPKAQTTVTCMENGWSPTPRCIRVSFTL | 3.8 | 2.8 | – | – | – | – | – | – | –
2 | CFHT.0 (pCTM297) (other, also called unmodified CFHT; protective CFHT) EDCNELPPRRNTEILTGSWSDQTYPEGTQAIYKCRPGYRSLGNIIMVCRKGEWVALNPLRKCQKRPCGHPGDTPFGTFTLTGGNVFEYGVKAVYTCNEGYQLLGEINYRECDTDGWTNDIPICEVVKCLPVTAPENGKIVSSAMEPDREYHFGQAVRFVCNSGYKIEGDEEMHCSDDGFWSKEKPKCVEISCKSPDVINGSPISQKIIYKENERFQYKCNMGYEYSERGDAVCTESGWRPLPSCEEKSCDNPYIPNGDYSPLRIKHRTGDEITYQCRNGFYPATRGNTAKCTSTGWIPAPRCTLKPCDYPDIKHGGLYHENMRRPYFPVAVGKYYSYYCDEHFETPSGSYWDHIHCTQDGWSPAVPCLRKCYFPYLENGYNQNYGRKFVQGKSIDVACHPGYALPKAQTTVTCMENGWSPTPRCIRVSFTL | – | – | 1.5 | – | – | – | – | – | –

Next, values leading:

Row | Fold Activity at Highest Dose (Relative to Control) (C3b protein [1]) [fold] | Fold Activity at Highest Dose (Relative to Control) (CRP [2]) [fold] | Fold Activity at Highest Dose (Relative to Control) (C3b protein [3]) [fold] | Fold Activity (Compared to CFHT-I62) (C3d ligand) [fold] | Fold Activity at Highest Dose (Relative to Control) (CRP [4]) [fold] | Fold Activity (Compared to CFHT-I62) (C3b protein [5]) [fold] | Fold Activity (Compared to CFHT-I62) (CRP [6]) [fold] | IC50, decay acceleration activity (DAA) assay (C3 convertase, C3bBb) [nM] | fold less active than unmodified CFHT, DAA assay (C3 convertase, C3bBb) [fold] | Binder
3 | – | – | 22 | 2.1 | 6.4 | 55.3 | 2.2 | – | – | His-dCFHT.0 (pCTM462) (other, Protective CFHT with the FHR-1 SCR1/2 homodimerization domain at the N-terminus ('dimer CFHT'); copies 2 follows that description, dimer state not measured; no residue range stated; also called purified recombinant dCFHT.0; not shown: 6x His-TEV tag (87 bp, 29 residues by transgene size: 1839 against 1752)) EATFCDFPKINHGILYDEEKYKPFSQVPTGEVFYYSCEYNFVSPSKSFWTRITCTEEGWSPTPKCLRLCFFPFVENGHSESSGQTHLEGDTVQIICNTGYRLQNNENNISCVERGWSTPPKCRSGGGGSGGGGSEDCNELPPRRNTEILTGSWSDQTYPEGTQAIYKCRPGYRSLGNIIMVCRKGEWVALNPLRKCQKRPCGHPGDTPFGTFTLTGGNVFEYGVKAVYTCNEGYQLLGEINYRECDTDGWTNDIPICEVVKCLPVTAPENGKIVSSAMEPDREYHFGQAVRFVCNSGYKIEGDEEMHCSDDGFWSKEKPKCVEISCKSPDVINGSPISQKIIYKENERFQYKCNMGYEYSERGDAVCTESGWRPLPSCEEKSCDNPYIPNGDYSPLRIKHRTGDEITYQCRNGFYPATRGNTAKCTSTGWIPAPRCTLKPCDYPDIKHGGLYHENMRRPYFPVAVGKYYSYYCDEHFETPSGSYWDHIHCTQDGWSPAVPCLRKCYFPYLENGYNQNYGRKFVQGKSIDVACHPGYALPKAQTTVTCMENGWSPTPRCIRVSFTL
4 | – | – | 43 | 3.8 | 6.3 | 40.1 | 12.2 | 15.5 | 8 | His-mCFHT.1 (pCTM459) (other, not shown: small tags and cut ends, Protective CFHT with one additional C-terminal SCR7 domain; also called purified recombinant mCFHT.1) EDCNELPPRRNTEILTGSWSDQTYPEGTQAIYKCRPGYRSLGNIIMVCRKGEWVALNPLRKCQKRPCGHPGDTPFGTFTLTGGNVFEYGVKAVYTCNEGYQLLGEINYRECDTDGWTNDIPICEVVKCLPVTAPENGKIVSSAMEPDREYHFGQAVRFVCNSGYKIEGDEEMHCSDDGFWSKEKPKCVEISCKSPDVINGSPISQKIIYKENERFQYKCNMGYEYSERGDAVCTESGWRPLPSCEEKSCDNPYIPNGDYSPLRIKHRTGDEITYQCRNGFYPATRGNTAKCTSTGWIPAPRCTLKPCDYPDIKHGGLYHENMRRPYFPVAVGKYYSYYCDEHFETPSGSYWDHIHCTQDGWSPAVPCLRKCYFPYLENGYNQNYGRKFVQGKSIDVACHPGYALPKAQTTVTCMENGWSPTPRCIRVRKCYFPYLENGYNQNYGRKFVQGKSIDVACHPGYALPKAQTTVTCMENGWSPTPRCIRVSFTL
5 | – | – | 99 | – | 49 | – | – | – | – | His-mCFHT.2 (pCTM460) (other, Protective CFHT with two additional C-terminal SCR7 domains; no residue range stated; HEK293 supernatant; not shown: N-terminal 6x His-TEV tag (87 bp, 29 residues by transgene size: 1791 against 1704)) EDCNELPPRRNTEILTGSWSDQTYPEGTQAIYKCRPGYRSLGNIIMVCRKGEWVALNPLRKCQKRPCGHPGDTPFGTFTLTGGNVFEYGVKAVYTCNEGYQLLGEINYRECDTDGWTNDIPICEVVKCLPVTAPENGKIVSSAMEPDREYHFGQAVRFVCNSGYKIEGDEEMHCSDDGFWSKEKPKCVEISCKSPDVINGSPISQKIIYKENERFQYKCNMGYEYSERGDAVCTESGWRPLPSCEEKSCDNPYIPNGDYSPLRIKHRTGDEITYQCRNGFYPATRGNTAKCTSTGWIPAPRCTLKPCDYPDIKHGGLYHENMRRPYFPVAVGKYYSYYCDEHFETPSGSYWDHIHCTQDGWSPAVPCLRKCYFPYLENGYNQNYGRKFVQGKSIDVACHPGYALPKAQTTVTCMENGWSPTPRCIRVRKCYFPYLENGYNQNYGRKFVQGKSIDVACHPGYALPKAQTTVTCMENGWSPTPRCIRVRKCYFPYLENGYNQNYGRKFVQGKSIDVACHPGYALPKAQTTVTCMENGWSPTPRCIRVSFTL
